Experimental data reported in paper PMC5913134, “The IL-33-PIN1-IRAK-M axis is critical for type 2 immunity in IL-33-induced allergic airway inflammation” (Nature Communications, 2018).

Legend:
IRAK-M = IRAK-M protein stability, cycloheximide chase; type: cell-based; settings: for IRAK-M half-life: cycloheximide chase
Experimental: Fig. 4 PIN1 increases IRAK-M protein stabilization. a After IRAK-M and GFP were coexpressed in WT and PIN1 KO MEFs for 24 h, cells were split equally into 5 dishes. 24 h later cells were treated with cyclohexamide and harvested to monitor IRAK-M, GFP and PIN1 levels at the time points indicated. b Quantification of 3 independent experiments as in a. c WT MEFs stably expressing the TET on inducible short hairpin for PIN1 (shPin1) or pLKO as a control, were expressed with IRAK-M, followed by induction with Doxycycline for 18 h prior to the cyclohexamide chase. d Quantification of 3 independent experiments as in c. e BMDCs from WT or PIN1 KO mice were treated with IL-33 and the levels of IRAK-M were monitored at different time points after induction. f Quantification of 3 independent experiments as in e. g PIN1 KO MEFs were expressed with IRAK-M alone or in combination with PIN1 or its mutants W34A or K63A for 24 h, followed by the cyclohexamide chase to assay IRAK-M stability. h Quantification of 3 independent experiments as in g. i IRAK-M or its different mutants; S110A, S110E and P111A were expressed in WT MEFs, followed by the cyclohexamide chase to assay IRAK-M stability. j Quantification of 3 independent experiments as in i. k IRAK-M or its different mutants were stably expressed in DC2.4 cells, followed by the cyclohexamide chase to monitor IRAK-M stability. l Quantification of 3 independent experiments as in k. The data were analyzed by a Student’s two-tailed t test and the values are reported as mean ± standard errors of the means (SEM). *- statistical significance (P < 0.05), **- significance (P < 0.01)

PIN1-IRAK-M interaction = assay: Co-immunoprecipitation of PIN1 and IRAK-M; type: binding; settings: for PIN1 interaction (CO-IP), IRAK-M constructs: HEK293 cells, after IL-33 treatment
Experimental: Fig. 2 IL-33 induces IRAK-M phosphorylation and binding to PIN1. a GST PIN1 pulldown assay with DC2.4 cell extracts either non-treated or treated with IL-33 (100 ng/ml) or LPS (100ng/ml) for 1 h. […] The cells were washed with fresh medium and treated with 100 ng/ml IL-33 for the indicated times prior to IRAK-M immunoprecipitation. d DC2.4 cells stably expressing IRAK-M were treated with IL-33 and at the indicated time points were subjected to CO-IP using anti-PIN1 antibody and blotted for IRAK-M. e HEK293 cells were transfected with different IRAK-M constructs expressing the N’ terminal domain (aa1-220), the middle portion of the protein (aa220-440) or the C’ terminal domain (aa 440-630), and then treated with IL-33, followed by CO-IP for PIN1. f DC2.4 cells stably expressing IRAK-M were treated with IL-33 and subjected to GST or GST-PIN1 pull-down.
Cells from one 10-cm dish were homogenized in lysis buffer containing 150 mM NaCl, 1% NP-40, 0.5% deoxycholate, 0.1% SDS, 50 mM Tris-HCl (pH 7.7), 1 mM phenylmethylsulfonyl fluoride (PMSF), 1 mM dithiothreitol, and protease inhibitors. Clarified supernatants were incubated with pre incubated immobilized beads rProtein A agarose beads (RepliGen) premixed with PIN1, GFP or IRAK-M antibody or, as a control, IgG overnight at 4 °C. The beads were washed extensively with lysis buffer before elution in SDS sample buffer.

asthmatic patients = assay: Segmental allergen (Derp1) challenge in asthmatic patients; type: in vivo, human
Text: Fig. 7 IRAK-M expression is elevated in asthmatic human samples after Derp1 segmental allergic challenge. a Representative H&E staining and PAS staining of lung biopsies before and after Derp1 segmental challenge, as well as BALF and brush cytospins before and after treatment stained with Giemsa (n = 4). b Cytospin slides of brushing, total BALF cells, BALF CD15 + and CD205 + cells samples were immune stained for IRAK-M. c Quantification of IRAK-M expression in total BALF cells, BALF CD15 + and CD205 + cells samples as in b using Velocity program. d Total BALF cells were immune stained for PIN1 and pS71PIN1 and quantified using Velocity program e. f RNA was extracted from BALF cellular contents and analyzed for the relative expression of Il6, Csf3, Cxcl2 and Ccl5 by qRT-PCR. The data were analyzed by a Student’s two-tailed t test and the values are reported as mean ± standard errors of the means (SEM). *- statistical significance (P < 0.05), **- significance (P < 0.01). Scale bar = 50 µm
For human subject study, non-smokers with a history of mild asthma with an FEV1 greater than 70% of predicted, using only intermittent beta-agonists for treatment, who were between the ages of 18 and 55 were recruited to undergo segmental allergen challenge via bronchoscopy. Participants were selected on the basis of both a positive methacholine PC20 < 8 mg/mL and a positive skin prick test to Dermatophagoides pternyssinus (DerP1). A positive intradermal that yielded a reaction at or below the concentration threshold of 0.1 AU/mL following the methods set forth in Parulekar et al., was also required, although only the DerP1 antigen was used.
After recoding baseline vitals, PO2, FEV1, PEFR, appropriate anesthetic medication was administered. Then, a fiberoptic bronchoscope with bronchoalveolar lavage (BAL) was performed by sequential instillation and removal of 5 aliquots of 50 mL normal saline in the lingula. Brushings and biopsies were taken after the BAL. The bronchoscope was then re-wedged on the contra lateral side (right middle lobe) in a readily identifiable sub-segment. A safety dose (100 × the minimum dose that caused reaction during the intradermal) of 5 mL of allergen in a prefilled syringe was instilled followed by 5 mL of air and the wedge was maintained for 5 minutes. Subject’s safety parameters were assessed after administration of the sub-threshold allergen dose. If the investigator determined the subject had well tolerated the safety dose, full dose of allergen (1000 × the minimum dose that caused reaction during the intradermal) in a pre-filled syringe was administered followed by 5 ml of air and the wedge was maintained for 5 min. Antigen lot to lot consistency was maintained between the participants intradermal skin test and segmental challenge. Participants were monitored for safety until 2 h after the procedure. After allergen challenge, if the subject developed systemic allergic reaction such as diffuse urticaria, angioedema, stridor, hypotension, syncope or any other serious adverse event, subject would be dropped from the study and only be followed up for safety reasons. Participants were not be allowed to leave for home until their condition was stable as assessed by the study physician.
Pre-bronchoscopy and bronchoscopy eligibility procedures were followed as detailed above prior to 2nd bronchoscopy. Specimens taken were BAL first, followed by brushings, and finally biopsies. These were taken where the segmental allergen challenge was placed (right middle lobe). Drug and post-procedure follow up and monitoring were followed as detailed above.

B1: PIN1: peptidyl-prolyl cis-trans isomerase PIN1 (protein, UniProt Q9QUR7 1-165, looked up)
Peptidyl-prolyl cis-trans …: MADEEKLPPGWEKRMSRSSGRVYYFNHITNASQWERPSGGSTVGGSSKNGQGEPAKVRCSHLLVKHSQSRRPSSWRQEKITRSKEEALELINGYIQKIKSGEEDFESLASQFSDCSSAKARGDLGPFSRGQMQKPFEDASFALRTGEMSGPVFTDSGIHIILRTE
IRAK-M; PIN1-deficient MEFs (text PIN1 KD, Fig. 4g legend PIN1 KO) co-expressing IRAK-M with PIN1 or mutant
  increase in IRAK-M half-life: more than 50%

B2: IRAK-M: Interleukin receptor associated kinase M (protein, UniProt Q8K4B2 1-609, looked up)
Interleukin-1 …: MAGRCGARGALSPQLLLFDLPPALLGELCGILDSCDGPLGWRGLAERLSNSWLDVRHIEKYVNQGKSGTRELLWSWAQKNKTIGDLLEVLQDMGHQRAIHLIINYGVSWTPSVQTHHELPFPSFPPEVKHACRENDPGPLEPANVTVDNVLVPEHNEKGTLQKTPISFQSILEGTKHFHKDFLIGEGEIFEVYRVDIRNQAYAVKLFKQEKKMQLKKHWKRFLSELEVLLLFRHPHILELAAYFTETEKLCLVYPYMSNGTLFDRLQCTNGTTPLSWHVRISVLIGIAKAIQYLHNTQPCAVICGNVSSANILLDDQLQPKLTDFAAAHFRPNLEQQSSTINMTGGGRKHLWYMPEEYIRQGRLSVKTDVYSFGIVIMEVLTGCKVVLDDPKHVQLRDLLMELMEKRGLDSCLSFLDRKIPPCPRNFSAKLFSLAGRCVATKAKLRPTMDEVLSSLESTQPSLYFAEDPPTSLKSFRCPSPLFLDNVPSIPVEDDENQNNHSVPPKEVLGTDRVTQKTPFECSQSEVTFLGLDRNRGNRGSEADCNVPSSSHEECWSPELVAPSQDLSPTVISLGSSWEVPGHSYGSKPMEKRCSSGLFCSEHEQSKKQ
PIN1-IRAK-M interaction; stably expressing DC2.4 cells, with/without IL-33
  PIN1 interaction (CO-IP), IRAK-M mutants: evident only after IL-33 stimulation
IRAK-M; PIN1 KO MEFs
  IRAK-M half-life: < 3 h
IRAK-M; WT MEFs
  IRAK-M half-life: ~ 6 h
IRAK-M; inducible PIN1 knock down (KD), MEFs
  reduction of IRAK-M half-life: more than 50%

B3: IRAK-M N-terminal domain: N-terminal (aa 1-220) of IRAK-M (protein, UniProt Q8K4B2 1-220, looked up, fragment)
chain: MAGRCGARGALSPQLLLFDLPPALLGELCGILDSCDGPLGWRGLAERLSNSWLDVRHIEKYVNQGKSGTRELLWSWAQKNKTIGDLLEVLQDMGHQRAIHLIINYGVSWTPSVQTHHELPFPSFPPEVKHACRENDPGPLEPANVTVDNVLVPEHNEKGTLQKTPISFQSILEGTKHFHKDFLIGEGEIFEVYRVDIRNQAYAVKLFKQEKKMQLKKHWK
PIN1-IRAK-M interaction
  PIN1 interaction (CO-IP), IRAK-M constructs: mainly evident

B4: S110A: IRAK-M mutant, Ser110 substituted to Ala (protein)
chain: MAGNCGARGALSAHTLLFDLPPALLGELCAVLDSCDGALGWRGLAERLSSSWLDVRHIEKYVDQGKSGTRELLWSWAQKNKTIGDLLQVLQEMGHRRAIHLITNYGAVLAPSEKSYQEGGFPNILFKETANVTVDNVLIPEHNEKGILLKSSISFQNIIEGTRNFHKDFLIGEGEIFEVYRVEIQNLTYAVKLFKQEKKMQCKKHWKRFLSELEVLLLFHHPNILELAAYFTETEKFCLIYPYMRNGTLFDRLQCVGDTAPLPWHIRIGILIGISKAIHYLHNVQPCSVICGSISSANILLDDQFQPKLTDFAMAHFRSHLEHQSCTINMTSSSSKHLWYMPEEYIRQGKLSIKTDVYSFGIVIMEVLTGCRVVLDDPKHIQLRDLLRELMEKRGLDSCLSFLDKKVPPCPRNFSAKLFCLAGRCAATRAKLRPSMDEVLNTLESTQASLYFAEDPPTSLKSFRCPSPLFLENVPSIPVEDDESQNNNLLPSDEGLRIDRMTQKTPFECSQSEVMFLSLDKKPESKRNEEACNMPSSSCEESWFPKYIVPSQDLRPYKVNIDPSSEAPGHSCRSRPVESSCSSKFSWDEYEQYKKE
PIN1-IRAK-M interaction
  PIN1 interaction (CO-IP), IRAK-M constructs: abolished the PIN1-IRAK-M interaction
IRAK-M; mutant IRAK-M, WT MEFs, reproduced in DC2.4 cells
  decrease of IRAK-M protein stability: ~ 50%

B5: Derp1: segmental allergen of Dermatophagoides pteronyssinus (protein, UniProt P08176 99-320, looked up)
Peptidase 1: TNACSINGNAPAEIDLRQMRTVTPIRMQGGCGSCWAFSGVAATESAYLAYRNQSLDLAEQELVDCASQHGCHGDTIPRGIEYIQHNGVVQESYYRYVAREQSCRRPNAQRFGISNYCQIYPPNVNKIREALAQTHSAIAVIIGIKDLDAFRHYDGRTIIQRDNGYQPNYHAVNIVGYSNAQGVDYWIVRNSWDTNWGDNGYGYFAANIDLMMIEEYPYVVIL
Asthmatic patients; asthmatic patients, segmental Derp1, n = 4
  immunological reaction (granulocyte infiltration, tissue remodeling): massive immunological reaction
Asthmatic patients; biopsies, before and after Derp1 challenge
  IRAK-M expression in bronchial epithelial cells: elevated
Asthmatic patients; brush cytospins, after Derp1 challenge
  IRAK-M protein expression in lung brush samples: greatly elevated
Asthmatic patients; sorted eosinophils (CD15+) and dendritic/monocytes (CD205+), after Derp1
  IRAK-M expression in CD15+ and CD205+ BALF cells: highly elevated
Asthmatic patients; total BALF cytospins, Derp1
  PIN1 protein expression: did not seem to change
  pS71 PIN1 phosphorylation: decrease in pS71 phosphorylation
Asthmatic patients; total BALF, after Derp1 challenge
  IRAK-M expression in total BALF cells: highly elevated
